[ ]: non-standard residue; d: D form. pT = C[C@@H](OP(=O)(O)O)[C@H](N)C(=O)O; pS = N[C@@H](COP(=O)(O)O)C(=O)O
B1: humanized antibody L46H11 (antibody, human IgG1, kappa)
heavy: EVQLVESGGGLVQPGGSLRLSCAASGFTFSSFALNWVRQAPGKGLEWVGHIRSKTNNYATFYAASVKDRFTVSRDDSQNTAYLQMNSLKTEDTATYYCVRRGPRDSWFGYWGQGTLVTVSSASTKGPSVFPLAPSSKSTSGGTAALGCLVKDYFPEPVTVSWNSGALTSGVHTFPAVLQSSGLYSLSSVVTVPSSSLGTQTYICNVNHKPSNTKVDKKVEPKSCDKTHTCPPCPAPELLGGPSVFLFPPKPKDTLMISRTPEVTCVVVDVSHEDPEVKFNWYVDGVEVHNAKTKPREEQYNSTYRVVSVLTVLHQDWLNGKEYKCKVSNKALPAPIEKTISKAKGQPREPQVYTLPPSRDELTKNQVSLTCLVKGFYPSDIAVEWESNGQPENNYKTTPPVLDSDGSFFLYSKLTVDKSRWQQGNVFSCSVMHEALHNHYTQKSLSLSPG
light: DIVMTQSPLSLPVTLGEPASISCRSSQSIVHSNGNTYLEWYLQKPGQSPQLLIYTVSNRFSGVPDRFSGSGSGTDFTLKISRVEAEDLGVYYCFQGSHLPLTFGGGTKVEIKRTVAAPSVFIFPPSDEQLKSGTASVVCLLNNFYPREAKVQWKVDNALQSGNSQESVTEQDSKDSTYSLSSTLTLSKADYEKHKVYACEVTHQGLSSPVTKSFNRGEC
B2: humanized antibody L47H11 (antibody, human IgG1, kappa, V domains shown)
VH: EVQLVESGGGLVQPGGSLRLSCAASGFTFSSFALNWVRQAPGKGLEWVGHIRSKTNNYATFYAASVKDRFTVSRDDSQNTAYLQMNSLKTEDTATYYCVRRGPRDSWFGYWGQGTLVTVSS
VL: DIVMTQSPLSLPVTLGDPASISCRSSQSIVHSNGNTYLEWYQQKPGQSPQRLIYTVSNRFSGVPDRFSGSGSGTDFTLKISRVEAEDLGVYYCFQGSHLPLTFGGGTKVEIKR
notes: VL47/VH11, human IgG1/kappa
B3: humanized antibody L47H65 (antibody, human IgG1, kappa, V domains shown)
VH: EVQLVESGGGLVQPGGSLRLSCAASGFAFNSFALNWVRQAPGKGLEWVVHIRSKTNNYATFYAASVKDRFTVSRDDSQNTAYLQMNSLKTEDTATYYCVRRGPRDSWFGYWGQGTLVTVSS
VL: DIVMTQSPLSLPVTLGDPASISCRSSQSIVHSNGNTYLEWYQQKPGQSPQRLIYTVSNRFSGVPDRFSGSGSGTDFTLKISRVEAEDLGVYYCFQGSHLPLTFGGGTKVEIKR
B4: humanized antibody L48H12 (antibody, human IgG1, kappa, V domains shown)
VH: EVQLVESGGGLVQPGGSLRLSCAASGFAFNSFALNWVRQAPGKGLEWVGHIRSKTNNYATFYADSVKDRFTVSRDDSKNTAYLQMNSLKTEDTATYYCVRRGPRDSWFGYWGQGTLVTVSS
VL: DIVMTQSPLSLPVTLGDPASISCRSSQNIVHSNGNTYLEWYQQKPGQSPQLLIYTVSNRFSGVPDRFSGSGSGTDFTLKISRVEAEDLGVYYCFQGSHLPLTFGGGTKVEIKR
notes: VL48/VH12, human IgG1/kappa
B5: humanized antibody L48H47 (antibody, human IgG1, kappa, V domains shown)
VH: EVQLVESGGGLVQPGGSLRLSCAASGFAFNSFALNWVRQAPGKGLEWVGHIRSKTNNYATFYAASVKDRFTVSRDDSQNTAYLQMNSLKTEDTATYYCVRRGPRDSWFGYWGQGTLVTVSS
VL: DIVMTQSPLSLPVTLGDPASISCRSSQNIVHSNGNTYLEWYQQKPGQSPQLLIYTVSNRFSGVPDRFSGSGSGTDFTLKISRVEAEDLGVYYCFQGSHLPLTFGGGTKVEIKR
notes: VL48/VH47, human IgG1/kappa

Assays:
[1] = biological target: T1, Peptide No. 8, pS412, H-NV(pS)STGSC-OH (human, SMILES CC(C)[C@H](NC(=O)[C@@H](N)CC(N)=O)C(=O)N[C@@H](COP(=O)(O)O)C(=O)N[C@@H](CO)C(=O)N[C@H](C(=O)NCC(=O)N[C@@H](CO)C(=O)N[C@@H](CS)C(=O)O)[C@@H](C)O); experiment: ELISA, coated peptide
T1 peptide: H-NV[pS]STGSC-OH
How it was run: (§1)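 Wells were coated overnight at 4 °C with 50 μL of peptide, or its bovine serum albumin or keyhole limpet hemocyanin conjugate, at 1 μg/mL in cold PBS, then blocked overnight at 4 °C with 3% BSA-PBS. Purified antibody at 150 ng/mL in 3% BSA-PBS was applied for 90 minutes at room temperature, followed by alkaline phosphatase-labelled goat anti-human IgG (H+L) diluted 2000-fold for 60 minutes. Antibody binding was recorded as absorbance. After 40 minutes of pNPP development, plates were read at 405 nm against a 550 nm reference.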

[2] = biological target: T2, Peptide No. 1, pS46, H-GLKE(pS)PLQT-OH (human, SMILES CC(C)C[C@H](NC(=O)CN)C(=O)N[C@@H](CCCCN)C(=O)N[C@@H](CCC(=O)O)C(=O)N[C@@H](COP(=O)(O)O)C(=O)N1CCC[C@H]1C(=O)N[C@@H](CC(C)C)C(=O)N[C@@H](CCC(N)=O)C(=O)N[C@H](C(=O)O)[C@@H](C)O); experiment: ELISA, coated peptide
T2 peptide: H-GLKE[pS]PLQT-OH
How it was run: as §1

[3] = biological target: T3, Peptide No. 4, pT212/pS214, H-GCGSPGTPGSRSR(pT)P(pS)LPTPPTREPK-OH (human, phosphothreonine (pT) at peptide position 14 (tau Thr212); phosphoserine (pS) at peptide position 16 (tau Ser214)); experiment: ELISA, coated peptide
T3 peptide: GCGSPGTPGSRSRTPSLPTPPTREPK
How it was run: as §1

[4] = biological target: T4, Peptide No. 3, pS202, H-SSPG(pS)PGTPC-OH (human, SMILES C[C@@H](O)[C@H](NC(=O)CNC(=O)[C@@H]1CCCN1C(=O)[C@H](COP(=O)(O)O)NC(=O)CNC(=O)[C@@H]1CCCN1C(=O)[C@H](CO)NC(=O)[C@@H](N)CO)C(=O)N1CCC[C@H]1C(=O)N[C@@H](CS)C(=O)O); experiment: ELISA, coated peptide
T4 peptide: H-SSPG[pS]PGTPC-OH
How it was run: as §1

[5] = biological target: T5, Peptide No. 2, pS199, H-SGYS(pS)PGSPGC-OH (human, SMILES N[C@@H](CO)C(=O)NCC(=O)N[C@@H](Cc1ccc(O)cc1)C(=O)N[C@@H](CO)C(=O)N[C@@H](COP(=O)(O)O)C(=O)N1CCC[C@H]1C(=O)NCC(=O)N[C@@H](CO)C(=O)N1CCC[C@H]1C(=O)NCC(=O)N[C@@H](CS)C(=O)O); experiment: ELISA, coated peptide
T5 peptide: H-SGYS[pS]PGSPGC-OH
How it was run: as §1

[6] = biological target: T6, Peptide No. 6, pT231, H-KVAVVR(pT)PPKSPS-OH (human); experiment: ELISA, coated peptide
T6 peptide: H-KVAVVR[pT]PPKSPS-OH
How it was run: as §1

[7] = biological target: T7, Peptide No. 5, pT217, H-GC-GSRSRTPSLP(pT)PPTREPKKVAVV-OH (human, phosphothreonine (pT) at peptide position 13 (tau Thr217)); experiment: ELISA, coated peptide
T7 peptide: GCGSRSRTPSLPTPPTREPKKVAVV
How it was run: as §1

[8] = biological target: T8, Peptide No. 7, pS396/pS400/pS404, H-GC-RENAKAKTDHGAEIVYK(pS)PVV(pS)GDT(pS)PRHL-OH (human, phosphoserine (pS) at peptide positions 20, 24 and 28 (tau Ser396, Ser400, Ser404)); experiment: ELISA, coated peptide
T8 peptide: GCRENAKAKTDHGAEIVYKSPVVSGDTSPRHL
How it was run: as §1

[9] = biological target: T9, His-tagged non-phosphorylated tau protein 4R0N (human, UniProt P10636 2-758); experiment: SPR Biacore T200, antigen immobilized
T9 construct: Produced by Escherichia coli; negative control in SPR; also called ATGen Cat. No. ATGP0795
Protocol: The binding affinities of the hyperphosphorylated tau protein 4R2N (hpTau), non-phosphorylated tau protein 4R0N, monophosphorylated tau peptide 1×P, triphosphorylated tau peptide 3×P, and non-phosphorylated tau peptide Non P with each antibody were measured with an SPR system Biacore T200 (GE Healthcare Japan), in accordance with the instruction manual for evaluation attached to the system.
The His-tagged hpTau or Tau proteins were each immobilized on a sensor chip using an HBS-N buffer (code No. BR-1003-69) as the immobilization reaction solution and allowing a nickel chloride solution to react with the NTA sensor chip for bonding Ni to NTA. Subsequently, the sensor chip was activated with a mixed solution of N-ethyl-N′-(3-dimethylaminopropyl)-carbodiimide hydrochloride (1-ethyl-3-(3-dimethylaminopropyl)carbodiimide hydrochloride: EDC) and N-hydroxysuccinimide (NHS). A solution of each of the His-tagged proteins, adjusted to a concentration of 100 to 500 ng/mL with a 4-(2-hydroxyethyl)-1-piperazineethanesulfonic acid (HEPES) buffer (0.01 M HEPES, 150 mM KCl, 2 mM DTT, 1 mM EDTA, pH 7.2), was applied to the sensor chip, whereby the protein was immobilized on the sensor chip through covalent bonds with the Ni-NTA. The remaining active NHS was blocked with ethanolamine, and Ni ions were removed with an EDTA solution (Ni-affinity amine coupling: see International Publication No. WO2005/022156). The antigen peptides (1×P, 3×P, and Non P) were each immobilized on a sensor chip by activating the NTA sensor chip with a mixed solution of N-ethyl-N′-(3-dimethylaminopropyl)-carbodiimide (EDC) hydrochloride and N-hydroxysuccinimide (NHS), and then applying a solution of the antigen peptide diluted with a 10 mM sodium acetate buffer (pH: 4 to 4.5) to 1 to 10 μM to the sensor chip, whereby the peptide was covalently bound to the sensor chip. The remaining active NHS was blocked with ethanolamine. Thus, sensor chips immobilized respectively with the proteins and peptides mentioned above were produced.
A CAPS buffer (pH 10.5) was applied to these sensor chips at 37° C. to stabilize the protein- or peptide-immobilized surfaces of the sensor chips.

T9 sequence (P10636 other isoform, or with tags, fused parts or gaps limits assumed): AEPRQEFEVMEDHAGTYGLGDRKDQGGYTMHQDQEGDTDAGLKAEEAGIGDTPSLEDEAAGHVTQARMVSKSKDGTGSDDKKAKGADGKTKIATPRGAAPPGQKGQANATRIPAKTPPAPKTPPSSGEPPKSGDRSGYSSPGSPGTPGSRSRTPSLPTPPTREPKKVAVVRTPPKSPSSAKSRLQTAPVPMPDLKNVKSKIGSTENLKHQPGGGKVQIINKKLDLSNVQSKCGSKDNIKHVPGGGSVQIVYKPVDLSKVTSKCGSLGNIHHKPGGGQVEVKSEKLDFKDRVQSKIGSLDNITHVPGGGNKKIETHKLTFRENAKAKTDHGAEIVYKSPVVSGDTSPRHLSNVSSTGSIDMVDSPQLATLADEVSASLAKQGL

| Binder | binding result [1] | binding result [2] | binding result [3] | binding result [4] | binding result [5] | binding result [6] | binding result [7] | binding result [8] | binding result [9] |
| --- | --- | --- | --- | --- | --- | --- | --- | --- | --- |
| B1 | no binding (tested: OD value <0.5; antibody 150 ng/mL) | no binding (tested: OD value <0.5; antibody 150 ng/mL) | no binding (tested: OD value <0.5; antibody 150 ng/mL) | no binding (tested: OD value <0.5; antibody 150 ng/mL) | no binding (tested: OD value <0.5; antibody 150 ng/mL) | no binding (tested: OD value <0.5; antibody 150 ng/mL) | no binding (tested: OD value <0.5; antibody 150 ng/mL) | no binding (tested: OD value <0.5; antibody 150 ng/mL) | no binding (tested: 0.2 to 1 nM) |
| B2 | no binding (tested: OD value <0.5; antibody 150 ng/mL) | no binding (tested: OD value <0.5; antibody 150 ng/mL) | no binding (tested: OD value <0.5; antibody 150 ng/mL) | no binding (tested: OD value <0.5; antibody 150 ng/mL) | no binding (tested: OD value <0.5; antibody 150 ng/mL) | no binding (tested: OD value <0.5; antibody 150 ng/mL) | no binding (tested: OD value <0.5; antibody 150 ng/mL) | no binding (tested: OD value <0.5; antibody 150 ng/mL) | no binding (tested: 0.2 to 1 nM) |
| B3 | no binding (tested: OD value <0.5; antibody 150 ng/mL) | no binding (tested: OD value <0.5; antibody 150 ng/mL) | no binding (tested: OD value <0.5; antibody 150 ng/mL) | no binding (tested: OD value <0.5; antibody 150 ng/mL) | no binding (tested: OD value <0.5; antibody 150 ng/mL) | no binding (tested: OD value <0.5; antibody 150 ng/mL) | no binding (tested: OD value <0.5; antibody 150 ng/mL) | no binding (tested: OD value <0.5; antibody 150 ng/mL) | no binding (tested: 0.2 to 1 nM) |
| B4 | no binding (tested: OD value <0.5; antibody 150 ng/mL) | no binding (tested: OD value <0.5; antibody 150 ng/mL) | no binding (tested: OD value <0.5; antibody 150 ng/mL) | no binding (tested: OD value <0.5; antibody 150 ng/mL) | no binding (tested: OD value <0.5; antibody 150 ng/mL) | no binding (tested: OD value <0.5; antibody 150 ng/mL) | no binding (tested: OD value <0.5; antibody 150 ng/mL) | no binding (tested: OD value <0.5; antibody 150 ng/mL) | no binding (tested: 0.2 to 1 nM) |
| B5 | no binding (tested: OD value <0.5; antibody 150 ng/mL) | no binding (tested: OD value <0.5; antibody 150 ng/mL) | no binding (tested: OD value <0.5; antibody 150 ng/mL) | no binding (tested: OD value <0.5; antibody 150 ng/mL) | no binding (tested: OD value <0.5; antibody 150 ng/mL) | no binding (tested: OD value <0.5; antibody 150 ng/mL) | no binding (tested: OD value <0.5; antibody 150 ng/mL) | no binding (tested: OD value <0.5; antibody 150 ng/mL) | no binding (tested: 0.2 to 1 nM) |

Reference: patent US20180346564A1 (TEIJIN PHARMA, published 2018)
